Target: T1, human progastrin (human, UniProt P01350 22-101)
T1 construct: also called hPG; PG
T1 sequence: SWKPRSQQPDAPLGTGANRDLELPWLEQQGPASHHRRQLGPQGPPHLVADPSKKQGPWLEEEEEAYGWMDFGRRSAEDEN
Assay: epitope mapping, method not described

| Binder | binding result |
| --- | --- |
| mAb3 (antibody, V domains shown, Murine monoclonal antibody from a hybridoma, raised against hPG 1-14; also called 6B5B11C10) VH: EVQLQQSGTVLARPGASVKMSCKASGYIFTSYWVHWVKQRPGQGLEWIGGFYPGNSDSRYNQKFKGKATLTAVTSASTAYMDLSSLTNEDSAVYFCTRRDSPQYWGQGTTLTVSS VL: DVLMTQTPLSLPVSLGDQASISCRSSQSIVHSNGNTYLEWYLQKPGQSPKLLIYKVSNRFSGVPDRFSGSGSGTDFTLKISRLEAEDLGVYYCFQGSHVPFTFGGGTKLEIK | binds |
| mAb4 (antibody, V domains shown, Murine monoclonal antibody from a hybridoma, raised against hPG 1-14; also called 20D2C3G2) VH: QVQLQQSGAELMKPGASVKISCKATGYTFSSSWIEWLKQRPGHGLEWIGEFLPGSGSTDYNEKFKGKATFTADTSSDTAYMLLSSLTSEDSAVYYCATDGNYDWFAYWGQGTLVTVSA VL: DLVMTQTPLSLPVSLGDQASISCRSSQSLVHSSGVTYLHWYLQKPGQSPKLLIYKVSNRFSGVPDRFSGSGSGTDFTLKISRVEAEDLGVYFCSQSTHVPPTFGSGTKLEIK | binds |
| mAb16 (antibody, V domains shown, Murine monoclonal antibody from a hybridoma, raised against hPG 1-14; also called 1E9D9B6) VH: QVQLQQSGAELVKPGASVKLSCKASGYTFTSYYMYWVKQRPGQGLEWIGEINPSNGGTNFNEKFKSKATLTVDKSSSTAYMQLSSLTSEDSAVYYCTRGGYYPFDYWGQGTTLTVSS VL: not shown | binds |
| mAb19 (antibody, V domains shown, Murine monoclonal antibody from a hybridoma, raised against hPG 1-14; also called 1B3B4F11) VH: DVQLQESGPGLVKPSQSLSLTCTVTGYSITSDYAWNWIRQFPGNKLEWMGYISFSGYTSYNPSLKSRISVTRDTSRNQFFLQLTSVTTEDTATYYCAREVNYGDSYHFDYWGQGTIVTVSS VL: QLALTQSSSASFSLGASAKLTCTLSSQHRTYTIEWYQQQSLKPPKYVMEVKKDGSHSTGHGIPDRFSGSSSGADRYLSISNIQPEDEAIYICGVGDAIKGQSVFVFGGGTKVTVL | binds |
| mAb13 (antibody, V domains shown, Murine monoclonal antibody from a hybridoma, raised against hPG 55-80; also called 2C6C3C7) VH: EVQLVESGGGLVQPGGSLKLSCAASGFIFSSYGMSWVRQSPDRRLELVASINTFGDRTYYPDSVKGRFTISRDNAKNTLYLQMTSLKSEDTAIYYCARGTGTYWGQGTTLTVSS VL: not shown | binds |
